Results taken from paper PMC12594171, “DKK3-LRP1 complex and a chemical inhibitor regulate Aβ clearance in models of Alzheimer’s disease” (Science Advances, 2025).

Molecular target: mLRPIV-HA, stably expressed in SH-SY5Y
Assay: co-IP + ELISA; SH-SY5Y cells stably expressing mLRPIV-HA incubated with Aβ42 and 1 to 200 nM DKK1 or DKK3; mLRPIV-HA precipitated with anti-HA affinity gel; Aβ42 in the eluate by ELISA

percent reduction of Aβ42 binding to mLRPIV at 20 nM DKK1: 44%
B1: DKK1-Flag (ligand)
chain: TLNSVLNSNAIKNLPPPLGGAAGHPGSAVSAAPGILYPGGNKYQTIDNYQPYPCAEDEECGTDEYCASPTRGGDAGVQICLACRKRRKRCMRHAMCCPGNYCKNGICVSSDQNHFRGEIEETITESFGNDHSTLDGYSRRTTLSSKMYHTKGQEGSVCLRSSDCASGLCCARHFWSKICKPVLKEGQVCTKHRRKGSHGLEIFQRCYCGEGLSCRIQKDHHQASNSSRLHTCQRH
